Test results published in US20220162330A1 (CELGENE, published 2022).
One block for each binder: values may come before it.

Assays:
[1] = target: T1, human CD47 expressed on the cell surface (human, UniProt Q08722 19-323); test: blocking of human SIRPα binding to OCI-Ly3 cells; competitor SIRPα (FIG. 21)
T1 construct: whole, on cells; also called cell surface CD47; CD47 on Raji, OCI-Ly3, Fadu cells, human RBCs, platelets and blood cells

cynomolgus CD47 ECD = target: T2, cynomolgus CD47 ECD (cynomolgus, UniProt A0A2K5X523 19-139); test: SPR
T2 construct: extracellular domain

mouse CD47 = target: T3, mouse CD47 (mouse, UniProt Q61735 19-140, limits assumed); test: SPR
T3 sequence (looked up): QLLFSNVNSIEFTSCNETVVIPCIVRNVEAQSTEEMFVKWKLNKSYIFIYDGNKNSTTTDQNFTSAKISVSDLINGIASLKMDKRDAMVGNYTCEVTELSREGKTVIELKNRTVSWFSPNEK

human CD47 ECD [2] = target: T4, human CD47 ECD (human, UniProt Q08722 19-139); test: SPR
T4 construct: extracellular domain; also called human CD47 extracellular domain

[3] = target: T1, human CD47 expressed on the cell surface; test: cell-based or functional assay
human CD20 on cells = target: T5, human CD20 on cells (human, UniProt P11836 1-297); test: binding to Raji cells (CD20+/CD47+), MFI on the sheet (the legend paragraph 49 says SPR); the signal is not resolved between the CD20 and CD47 arms
T5 construct: whole, on cells; The CD20+ cells in these assays also carry CD47; also called CD20 on B cells and Raji cells
T5 sequence (looked up): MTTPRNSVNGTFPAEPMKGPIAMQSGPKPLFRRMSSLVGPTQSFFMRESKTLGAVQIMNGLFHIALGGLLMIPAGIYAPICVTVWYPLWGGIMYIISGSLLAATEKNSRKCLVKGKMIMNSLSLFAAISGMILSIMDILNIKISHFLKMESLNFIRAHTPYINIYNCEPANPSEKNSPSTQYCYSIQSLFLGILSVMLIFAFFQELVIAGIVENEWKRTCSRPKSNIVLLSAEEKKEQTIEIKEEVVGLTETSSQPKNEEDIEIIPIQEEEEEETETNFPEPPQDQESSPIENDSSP

[4] = target: T1, human CD47 expressed on the cell surface; test: blocking of human SIRPα binding to OCI-Ly3 cells; competitor SIRPα at a saturating concentration, secondary antibody detection; OCI-Ly3 cells (CD20+ DLBCL line); blocking of human SIRPα binding
[5] = target: T1, human CD47 expressed on the cell surface; test: blocking of human SIRPα binding to Raji cells; competitor SIRPα at a saturating concentration, secondary antibody detection; Raji cells (CD47+/CD20+ Burkitt's lymphoma line); blocking of human SIRPα binding
[6] = target: T1, human CD47 expressed on the cell surface; test: cell-based or functional assay; remark: listed apart in the source
human CD47 ECD [7] = target: T4, human CD47 ECD; test: column 'Human CD47 KD (µM)'; the sheet names no assay (SPR per paragraph 7 and paragraph 162)

- IC50 [1]: 0.11 nM
B1: TPP-23 (408_437 with IgG1) (antibody, V domains shown)
VH: QMQLVQSGAEVKKPGSSVKVSCKASGFNIKDYYLHWVRQAPGKGLEWMGWIDPDQGDTEYAQKFQGRVTITRDRSTSTAYMELRSLRAEDTAVYYCNAAYGSSSYPMDYWGQGTLVTVSS
VL: NIQMTQSPSSLSASVGDRVTITCRASQDIHRYLSWFQQKPGKVPKHLIYRANRLVSGVPSRFSGSGSGTEFTLTISSLQPEDFATYYCLQYDEFPYTFGGGTKVEIK
notes: Monospecific IgG1 with the 408_437 Fab; also called parental CD47 mAb

- Kd (cynomolgus CD47 ECD): 4.51 µM
- binding result (mouse CD47): no binding
- Kd (human CD47 ECD [2]): 1700 nM
- fold decrease in affinity relative to the parental anti-CD47 binder (human CD47 ECD [2]): ~350 fold
- IC50 of activation of macrophage phagocytosis, OCI-Ly3 cell line [3]: 1.4 nM
- IC50 of activation of macrophage phagocytosis, Raji cell line [3]: 1.8 nM
- binding result (human CD20 on cells): binds
- EC50 [4]: 1.3 nM
- EC50 [5]: 1.64 nM
B2: TPP-1360 (bispecific antibody, human IgG1, kappa)
light 1: NIQMTQSPSSLSASVGDRVTITCRASQDIHRYLSWFQQKPGKVPKHLIYRESRFVDGVPSRFSGSGSGTEFTLTISSLQPEDFATYYCLQYDEFPYTFGGGTKVEIKRTVAAPSVFIFPPSDEELKSGTASVVCWLNNFYPREAKVQWKVDNALQSGNSEESVTEQDSKDSTYSLSSTLELSKADYEKHKVYACEVTHQGLSSPVTKSFNRGEC
heavy 1: QMQLVQSGAEVKKPGSSVKVSCKASGFNIKDYYLHWVRQAPGKGLEWMGWIDPDQGDTYYAQKFQGRVTITRDRSTSTAYMELRSLRAEDTAVYYCNAAYGESSYPMDYWGQGTLVTVSSASTKGPSVFPLAPSSKSTSGGTAALGCLVKDYFPEPVTVSWNSGALTSGVHTFPAVLKSSGLYSLSSVVTVPSSSLGTQTYICNVNHKPSNTKVDKKVEPKSCDKTHTCPPCPAPELLGGPSVFLFPPKPKDTLMISRTPEVTCVVVDVSHEDPEVKFNWYVDGVEVHNAKTKPREEQYNSTYRVVSVLTVLHQDWLNGKEYKCKVSNKALPAPIEKTISKAKGQPREPQVYVLPPSREEMTKNQVSLLCLVKGFYPSDIAVEWESNGQPENNYLTWPPVLDSDGSFFLYSKLTVDKSRWQQGNVFSCSVMHEALHNHYTQKSLSLSPGK
light 2: QIVLSQSPAILSASPGEKVTMTCRASSSVSYIHWFQQKPGSSPKPWIYATSNLASGVPVRFSGSGSGTSYSLTISRVEAEDAATYYCQQWTSNPPTFGGGTKLEIKRTVAAPSVAIFPPSDERLKSGTASVVCVLNNFYPREAKVQWKVDNALQSGNSQESVTEQDSKDSTYSLSSRLTLSKADYEKHKVYACEVTHQGLSSPVTKSFNRGEC
heavy 2: QVQLQQPGAELVKPGASVKMSCKASGYTFTSYNMHWVKQTPGRGLEWIGAIYPGNGDTSYNQKFKGKATLTADKSSSTAYMQLSSLTSEDSAVYYCARSTYYGGDWYFNVWGAGTTVTVSAASTKGPSVFPLAPSSKSTSGGTAWLGCEVTDYFPEPVTVSWNSGALTSGVHTFPAVLESSGLYSLSSVVTVPSSSLGTQTYICNVNHKPSNTKVDKKVEPKSCDKTHTCPPCPAPELLGGPSVFLFPPKPKDTLMISRTPEVTCVVVDVSHEDPEVKFNWYVDGVEVHNAKTKPREEQYNSTYRVVSVLTVLHQDWLNGKEYKCKVSNKALPAPIEKTISKAKGQPREPQVYVYPPSREEMTKNQVSLTCLVKGFYPSDIAVEWESNGQPENNYKTTPPVLDSDGSFALVSKLTVDKSRWQQGNVFSCSVMHEALHNHYTQKSLSLSPGK
notes: IgG1 1+1 heterodimer: one detuned anti-CD47 arm and one rituximab-derived anti-CD20 arm; also called CD47×CD20 bispecific; CD47×CD20 IgG1

- EC50 of macrophage phagocytosis of OCI-Ly3 cells (column 'OCI-Ly3 Mφ EC50 (µg/mL)') [6]: 0.5 µg/mL
- EC50 of macrophage phagocytosis of OCI-Ly3 cells, repeat (column 'OCI-Ly3 Mφ EC50 (µg/mL) Repeat') [6]: 0.45 µg/mL
- Kd (human CD47 ECD [7]): 2530 nM
B3: TPP-1361 (bispecific antibody, human IgG1, kappa)
light 1: NIQMTQSPSSLSASVGDRVTITCQASQDIHRYLSWFQQDPGTVPQHLIYRESRFVDGVPSRFSGSGSGTEFTLTISSLQPEDFATYYCLQYDEFPYTFGGGTKVEIKRTVAAPSVFIFPPSDEELKSGTASVVCWLNNFYPREAKVQWKVDNALQSGNSEESVTEQDSKDSTYSLSSTLELSKADYEKHKVYACEVTHQGLSSPVTKSFNRGEC
heavy 1: QMQLVQSGAEVKKPGSSVKVSCKASGFNIKDYYLHWVRQAPGQGLEWMGWIDPDQGDTYYAQKFQGRVTITRDRSTSTAYMELASLTAEDTAVYYCNAAYGESSYPMDYWGQGTLVTVSSASTKGPSVFPLAPSSKSTSGGTAALGCLVKDYFPEPVTVSWNSGALTSGVHTFPAVLKSSGLYSLSSVVTVPSSSLGTQTYICNVNHKPSNTKVDKKVEPKSCDKTHTCPPCPAPELLGGPSVFLFPPKPKDTLMISRTPEVTCVVVDVSHEDPEVKFNWYVDGVEVHNAKTKPREEQYNSTYRVVSVLTVLHQDWLNGKEYKCKVSNKALPAPIEKTISKAKGQPREPQVYVLPPSREEMTKNQVSLLCLVKGFYPSDIAVEWESNGQPENNYLTWPPVLDSDGSFFLYSKLTVDKSRWQQGNVFSCSVMHEALHNHYTQKSLSLSPGK
light 2: QIVLSQSPAILSASPGEKVTMTCRASSSVSYIHWFQQKPGSSPKPWIYATSNLASGVPVRFSGSGSGTSYSLTISRVEAEDAATYYCQQWTSNPPTFGGGTKLEIKRTVAAPSVAIFPPSDERLKSGTASVVCVLNNFYPREAKVQWKVDNALQSGNSQESVTEQDSKDSTYSLSSRLTLSKADYEKHKVYACEVTHQGLSSPVTKSFNRGEC
heavy 2: QVQLQQPGAELVKPGASVKMSCKASGYTFTSYNMHWVKQTPGRGLEWIGAIYPGNGDTSYNQKFKGKATLTADKSSSTAYMQLSSLTSEDSAVYYCARSTYYGGDWYFNVWGAGTTVTVSAASTKGPSVFPLAPSSKSTSGGTAWLGCEVTDYFPEPVTVSWNSGALTSGVHTFPAVLESSGLYSLSSVVTVPSSSLGTQTYICNVNHKPSNTKVDKKVEPKSCDKTHTCPPCPAPELLGGPSVFLFPPKPKDTLMISRTPEVTCVVVDVSHEDPEVKFNWYVDGVEVHNAKTKPREEQYNSTYRVVSVLTVLHQDWLNGKEYKCKVSNKALPAPIEKTISKAKGQPREPQVYVYPPSREEMTKNQVSLTCLVKGFYPSDIAVEWESNGQPENNYKTTPPVLDSDGSFALVSKLTVDKSRWQQGNVFSCSVMHEALHNHYTQKSLSLSPGK
notes: IgG1 1+1 heterodimer; also called CD47×CD20 bispecific

- EC50 of macrophage phagocytosis of OCI-Ly3 cells (column 'OCI-Ly3 Mφ EC50 (µg/mL)') [6]: 0.064 µg/mL
- EC50 of macrophage phagocytosis of OCI-Ly3 cells, repeat (column 'OCI-Ly3 Mφ EC50 (µg/mL) Repeat') [6]: 0.046 µg/mL
- Kd (human CD47 ECD [7]): 430 nM
B4: TPP-1367 (bispecific antibody, human IgG1, kappa)
anti-CD47 light chain: NIQMTQSPSSLSASVGDRVTITCRASQDIHRYLSWFQQKPGKVPKHLIYRANRLVSGVPSRFSGSGSGTEFTLTISSLQPEDFATYYCLQYDEFPYTFGGGTKVEIKRTVAAPSVFIFPPSDEELKSGTASVVCWLNNFYPREAKVQWKVDNALQSGNSEESVTEQDSKDSTYSLSSTLELSKADYEKHKVYACEVTHQGLSSPVTKSFNRGEC
anti-CD47 heavy chain: QMQLVQSGAEVKKPGSSVKVSCKASGFNIKDYYLHWVRQAPGKGLEWMGWIDPDQGDTYYAQKFQGRVTITRDRSTSTAYMELRSLRAEDTAVYYCNAAYGESSYPMDYWGQGTLVTVSSASTKGPSVFPLAPSSKSTSGGTAALGCLVKDYFPEPVTVSWNSGALTSGVHTFPAVLKSSGLYSLSSVVTVPSSSLGTQTYICNVNHKPSNTKVDKKVEPKSCDKTHTCPPCPAPELLGGPSVFLFPPKPKDTLMISRTPEVTCVVVDVSHEDPEVKFNWYVDGVEVHNAKTKPREEQYNSTYRVVSVLTVLHQDWLNGKEYKCKVSNKALPAPIEKTISKAKGQPREPQVYVLPPSREEMTKNQVSLLCLVKGFYPSDIAVEWESNGQPENNYLTWPPVLDSDGSFFLYSKLTVDKSRWQQGNVFSCSVMHEALHNHYTQKSLSLSPGK
anti-CD20 light chain: QIVLSQSPAILSASPGEKVTMTCRASSSVSYIHWFQQKPGSSPKPWIYATSNLASGVPVRFSGSGSGTSYSLTISRVEAEDAATYYCQQWTSNPPTFGGGTKLEIKRTVAAPSVAIFPPSDERLKSGTASVVCVLNNFYPREAKVQWKVDNALQSGNSQESVTEQDSKDSTYSLSSRLTLSKADYEKHKVYACEVTHQGLSSPVTKSFNRGEC
anti-CD20 heavy chain: QVQLQQPGAELVKPGASVKMSCKASGYTFTSYNMHWVKQTPGRGLEWIGAIYPGNGDTSYNQKFKGKATLTADKSSSTAYMQLSSLTSEDSAVYYCARSTYYGGDWYFNVWGAGTTVTVSAASTKGPSVFPLAPSSKSTSGGTAWLGCEVTDYFPEPVTVSWNSGALTSGVHTFPAVLESSGLYSLSSVVTVPSSSLGTQTYICNVNHKPSNTKVDKKVEPKSCDKTHTCPPCPAPELLGGPSVFLFPPKPKDTLMISRTPEVTCVVVDVSHEDPEVKFNWYVDGVEVHNAKTKPREEQYNSTYRVVSVLTVLHQDWLNGKEYKCKVSNKALPAPIEKTISKAKGQPREPQVYVYPPSREEMTKNQVSLTCLVKGFYPSDIAVEWESNGQPENNYKTTPPVLDSDGSFALVSKLTVDKSRWQQGNVFSCSVMHEALHNHYTQKSLSLSPGK
notes: IgG1 1+1 heterodimer; also called CD47/CD20 TPP1367; CD47×CD20 bispecific
